Laboratory results taken from PMC5500832 (Chemical Science, 2015).

Type: physicochemical
Details: all pH values (3, 5, 7 and 9); 20 °C; over eight days; HPLC-MSMS; detection limit = 0.05%

FFRKSIINFEKL [compound 3]
Formation of α-GalCer (background hydrolysis, linker collapse): No formation of α-GalCer was detected
